{"source": "paper PMC6007033", "key": {"[1]": {"target": "BG505.T332N.SOSIP.664.113C.429GCG gp140 trimer (HIV-1 BG505)", "assay": "SPR"}, "[2]": {"target": "BG505.T332N.SOSIP.664.113C.431GCG gp140 trimer (HIV-1 BG505)", "assay": "SPR"}}}
{"substance": "two-domain soluble CD4 (receptor)", "values": [{"measurement": "reduction in binding affinity against the unmutated trimer", "setting": "[1]", "result": 3, "unit": "log"}, {"measurement": "reduction in binding affinity against the unmutated trimer", "setting": "[2]", "result": 3, "unit": "log"}]}
